What was measured:
[1] = molecular target: EV-D68 A-particle (strain STL-2014-12) (Enterovirus D68, STL-2014-12 (KM881710), strain); assay: cryo-EM structure
[2] = molecular target: T1, EV-D68 capsid protein VP1 (strain STL-2014-12) (Enterovirus D68, STL-2014-12 (KM881710), strain); assay: cryo-EM structure
T1 chain: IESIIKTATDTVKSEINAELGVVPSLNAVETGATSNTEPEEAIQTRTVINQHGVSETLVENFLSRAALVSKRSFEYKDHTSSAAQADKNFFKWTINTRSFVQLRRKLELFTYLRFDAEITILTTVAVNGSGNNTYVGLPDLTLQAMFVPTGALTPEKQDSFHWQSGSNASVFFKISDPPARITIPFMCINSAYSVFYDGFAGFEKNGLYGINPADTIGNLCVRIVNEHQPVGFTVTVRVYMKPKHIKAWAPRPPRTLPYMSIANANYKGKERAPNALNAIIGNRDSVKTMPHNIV

[3] = molecular target: T2, EV-D68 capsid protein VP3 (strain STL-2014-12) (Enterovirus D68, STL-2014-12 (KM881710), strain); assay: cryo-EM structure
T2 chain: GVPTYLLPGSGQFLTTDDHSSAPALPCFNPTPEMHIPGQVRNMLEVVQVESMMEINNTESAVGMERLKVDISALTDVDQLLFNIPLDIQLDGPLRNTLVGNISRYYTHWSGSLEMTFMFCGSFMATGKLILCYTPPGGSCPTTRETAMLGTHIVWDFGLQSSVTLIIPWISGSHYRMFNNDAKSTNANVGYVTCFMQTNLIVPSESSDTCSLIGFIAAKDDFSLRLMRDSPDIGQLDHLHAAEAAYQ

[4] = molecular target: T3, EV-D68 capsid protein VP2 (strain STL-2014-12) (Enterovirus D68, STL-2014-12 (KM881710), strain); assay: cryo-EM structure
T3 chain: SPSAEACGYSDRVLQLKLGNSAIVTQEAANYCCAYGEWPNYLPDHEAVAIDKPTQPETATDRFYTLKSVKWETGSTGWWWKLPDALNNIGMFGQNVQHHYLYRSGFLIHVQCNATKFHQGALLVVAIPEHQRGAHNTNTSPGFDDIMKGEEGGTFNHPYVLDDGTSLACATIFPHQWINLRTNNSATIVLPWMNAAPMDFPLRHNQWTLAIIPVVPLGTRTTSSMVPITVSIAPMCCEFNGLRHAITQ

[5] = molecular target: T4, EV-D68 procapsid (strain STL-2014-12) (Enterovirus D68, STL-2014-12 (KM881710), UniProt A0A097F8Q2;PDB, strain); assay: cryoEM with 2D classification
[6] = molecular target: T4, EV-D68 procapsid (strain STL-2014-12); assay: ELISA

B1: Fab 11G1 (Fab, V domains shown)
VH: QVQLQQSGAELVRPGVSVKISCKGSGYIFTDYVMHWVKQSHSKSLEWIGVISTYYGDGSYNQKFKGKATMTVDKSSSTAYMELARLTSEDSAIYYCVRGENYYGVSGTMDYWGQGTSVTVSS
VL: DIVMSQSPSSLAVSVGEKVTMSCKSSQSLLYSNNQKNYLAWYQQKPGQSPQLLIYWASTRESGVPDRFTGSESGTDFTLTISSVKAEDLAVFYCQQYYNYPWTFGGGTKLEIK
For B1, the “stoichiometry N” value [1] was 60 copies per particle and the binding result [2] was “binds”.

B2: Fab 15C5 (Fab, V domains shown)
VH: QVQLQQSGTELAKPGASVKMSCKASGYTFTNYWMHWFKQRPGQGLEWIGYVNPNTDYTDYNHKFKDKATLTADKSSSTAYMQLSSLTSEDSAVYFCARGTFGNYASFAYWGQGTLV
VL: DIQMIQSPSSMFASLGDRVSLSCRASQDIRGNLDWYQQKPGGTIKLLIYSTSNLNSGVPSRFSGSGSGSDYSLTISSLESEDFADYYCLQRNAYPLTFGGGTKLEIK
B2: binds [3]; binds [4]; binds [5]. The “stoichiometry N” value [1] was 60 copies per particle.

B3: monoclonal antibody 15C5 (antibody, V domains shown)
VH: B2 VH
VL: B2 VL
B3: binds [6].
